Laboratory results reported in patent EP4722251.

Tests used:
[1] = target: Recombinant human TFPI protein; assay: BLI; fit kinetic; antibody as IgG; antigen as not_told; on the surface: binder; avidity not_told; settings: 30.0 °C; for koff: pH 7.4
[2] = target: Human TFPI/His; assay: ELISA; fit not_stated; antibody as IgG; antigen as monomer; on the surface: target; avidity possible

In the case of Concizumab, the Koff Ratio (pH6.0/pH7.4) ([1]; pH 6.0, second pH 7.4) is reported as 0.9, the koff [1] is reported as 4.01e-07 s⁻¹ and the koff ([1]; second pH 6.0) is reported as 3.6e-07 s⁻¹. It also gave an EC50 ([2]; pH 4.0) of 16.5 ng/mL, an EC50 ([2]; pH 4.5) of 4.94 ng/mL and an EC50 ([2]; pH 5.0) of 4.83 ng/mL. For the same substance, the EC50 ([2]; pH 5.5) was 5 ng/mL, the EC50 ([2]; pH 6.0) was 6.1 ng/mL and the EC50 ([2]; pH 6.5) was 4.9 ng/mL. It also gave an EC50 ([2]; pH 7.4) of 4.25 ng/mL.

For Marstacimab, the EC50 ([2]; pH 4.0) was 5.87 ng/mL, the EC50 ([2]; pH 4.5) was 3.15 ng/mL and the EC50 ([2]; pH 5.0) was 3.97 ng/mL. For the same substance, the EC50 ([2]; pH 5.5) was 2.18 ng/mL, the EC50 ([2]; pH 6.0) was 3.19 ng/mL and the EC50 ([2]; pH 6.5) was 3.87 ng/mL. The EC50 ([2]; pH 7.4) was 4.01 ng/mL.
